The target in the test is Expi293F human cell-derived and purified SARS-CoV-2 RBD (RBD296-531) (SARS-CoV-2), P0DTC2.

In patent US20230227508A1, “SPLIT INTEIN-BASED SELECTION FOR PEPTIDE BINDERS” (priority 2020, published 2023) one finds Kd data, which are given here for one molecule.

With GVCKYGEWCEIVEI (modifications not checked) [AMK-1057 (purified, PapB-modified 14 aa thioether-cyclized peptide)], the Kd stood at 990 nM.

The Kd is the concentration at which binding is half-saturated. Low values mean higher affinity, high ones lower affinity.
